According to publication PMC9279154 (Nature, 2022):

B1: His-tagged Loqs-PD, wild type [Drosophila melanogaster] / Drosophila melanogaster Dicer-2 (Dcr-2), wild type [Drosophila melanogaster] (parent complex)
chain 1: MDQENFHGSSLPQQLQNLHIQPQQASPNPVQTGFAPRRHYNNLVGLGNGNAVSGSPVKGAPLGQRHVKLKKEKISAQVAQLSQPGQLQLSDVGDPALAGGSGLQGGVGLMGVILPSDEALKFVSETDANGLAMKTPVSILQELLSRRGITPGYELVQIEGAIHEPTFRFRVSFKDKDTPFTAMGAGRSKKEAKHAAARALIDKLIGAQLPESPSSSAGPSVTGLTVAGSGGDGNANATGGGDASDKTVGNPIGWLQEMCMQRRWPPPSYETETEVGLPHERLFTIACSILNYREMGKGKSKKIAKRLAAHRMWMRLQETPIDSGKISDSICGELEGEVSIIQDIDRYEQVSKDFEFIKI
chain 2: MEDVEIKPRGYQLRLVDHLTKSNGIVYLPTGSGKTFVAILVLKRFSQDFDKPIESGGKRALFMCNTVELARQQAMAVRRCTNFKVGFYVGEQGVDDWTRGMWSDEIKKNQVLVGTAQVFLDMVTQTYVALSSLSVVIIDECHHGTGHHPFREFMRLFTIANQTKLPRVVGLTGVLIKGNEITNVATKLKELEITYRGNIITVSDTKEMENVMLYATKPTEVMVSFPHQEQVLTVTRLISAEIEKFYVSLDLMNIGVQPIRRSKSLQCLRDPSKKSFVKQLFNDFLYQMKEYGIYAASIAIISLIVEFDIKRRQAETLSVKLMHRTALTLCEKIRHLLVQKLQDMTYDDDDDNVNTEEVIMNFSTPKVQRFLMSLKVSFADKDPKDICCLVFVERRYTCKCIYGLLLNYIQSTPELRNVLTPQFMVGRNNISPDFESVLERKWQKSAIQQFRDGNANLMICSSVLEEGIDVQACNHVFILDPVKTFNMYVQSKGRARTTEAKFVLFTADKEREKTIQQIYQYRKAHNDIAEYLKDRVLEKTEPELYEIKGHFQDDIDPFTNENGAVLLPNNALAILHRYCQTIPTDAFGFVIPWFHVLQEDERDRIFGVSAKGKHVISINMPVNCMLRDTIYSDPMDNVKTAKISAAFKACKVLYSLGELNERFVPKTLKERVASIADVHFEHWNKYGDSVTATVNKADKSKDRTYKTECPLEFYDALPRVGEICYAYEIFLEPQFESCEYTEHMYLNLQTPRNYAILLRNKLPRLAEMPLFSNQGKLHVRVANAPLEVIIQNSEQLELLHQFHGMVFRDILKIWHPFFVLDRRSKENSYLVVPLILGAGEQKCFDWELMTNFRRLPQSHGSNVQQREQQPAPRPEDFEGKIVTQWYANYDKPMLVTKVHRELTPLSYMEKNQQDKTYYEFTMSKYGNRIGDVVHKDKFMIEVRDLTEQLTFYVHNRGKFNAKSKAKMKVILIPELCFNFNFPGDLWLKLIFLPSILNRMYFLLHAEALRKRFNTYLNLHLLPFNGTDYMPRPLEIDYSLKRNVDPLGNVIPTEDIEEPKSLLEPMPTKSIEASVANLEITEFENPWQKYMEPVDLSRNLLSTYPVELDYYYHFSVGNVCEMNEMDFEDKEYWAKNQFHMPTGNIYGNRTPAKTNANVPALMPSKPTVRGKVKPLLILQKTVSKEHITPAEQGEFLAAITASSAADVFDMERLEILGDSFLKLSATLYLASKYSDWNEGTLTEVKSKLVSNRNLLFCLIDADIPKTLNTIQFTPRYTWLPPGISLPHNVLALWRENPEFAKIIGPHNLRDLALGDEESLVKGNCSDINYNRFVEGCRANGQSFYAGADFSSEVNFCVGLVTIPNKVIADTLEALLGVIVKNYGLQHAFKMLEYFKICRADIDKPLTQLLNLELGGKKMRANVNTTEIDGFLINHYYLEKNLGYTFKDRRYLLQALTHPSYPTNRITGSYQELEFIGDAILDFLISAYIFENNTKMNPGALTDLRSALVNNTTLACICVRHRLHFFILAENAKLSEIISKFVNFQESQGHRVTNYVRILLEEADVQPTPLDLDDELDMTELPHANKCISQEAEKGVPPKGEFNMSTNVDVPKALGDVLEALIAAVYLDCRDLQRTWEVIFNLFEPELQEFTRKVPINHIRQLVEHKHAKPVFSSPIVEGETVMVSCQFTCMEKTIKVYGFGSNKDQAKLSAAKHALQQLSKCDA

Variants of: B1
Assay: pull-down; parent: 1; read off a plot

Variant	ratio to parent
chain 1 F356D	~0.06
chain 1 I359D	~0.04
chain 1 Y347A	~0.1
